Article PMC11128199 (2024)

Target: S protein of WT SARS-CoV-2 (SARS-CoV-2, UniProt P0DTC2)
Assay: ELISA

B1: 55A8 neutralizing antibody (IgG) (antibody, V domains shown)
VH: QVQLVQSGAEVKKPGSSVKVSCKASGGTFSSYSFIWVRQAPGQGLEWMGRIIPILGIANYAQKFQGRVTITADKSTTTAYMELSSLRSEDTAVYYCARGTEYGDYDVSHDWGQGTLVTVSS
VL: not shown
EC50: 0.0439 µg/mL
